Measured values: patent publication US20230158141A1 (YAFEI SHANGHAI BIOLOG MEDICINE SCIENCE AND TECHNOLOGY, published 2023)
Positions count from the first letter of the chain named.

T1: IL-10R1-Fc (UniProt Q13651 22-235, limits assumed)
T1 sequence (looked up): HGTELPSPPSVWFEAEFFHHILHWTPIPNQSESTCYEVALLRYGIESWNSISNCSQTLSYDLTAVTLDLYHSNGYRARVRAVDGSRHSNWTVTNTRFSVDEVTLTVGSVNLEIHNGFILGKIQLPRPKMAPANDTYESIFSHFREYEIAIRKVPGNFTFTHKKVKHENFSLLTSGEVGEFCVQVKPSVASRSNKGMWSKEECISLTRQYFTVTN

B1: IL-10 Leu131Cys-S48 (ligand, human, UniProt P22301 19-178, looked up)
chain: SPGQGTQSENSCTHFPGNLPNMLRDLRDAFSRVKTFFQMKDQLDNLLLKESLLEDFKGYLGCQALSEMIQFYLEEVMPQAENQDPDIKAHVNSLGENLKTLRLRLRRCHRFLPCENKSKAVEQVKNAFNKCQEKGIYKAMSEFDIFINYIEAYMTMKIRN
modifications: S48 on Cys 131
notes: mature
B2: IL-10 Lys49Cys-R4-5 (ligand, human, UniProt P22301 19-178, looked up)
chain: B1 chain with K49C, C131L
modifications: R4-5 on Cys 49
notes: mature
B3: IL-10 Lys49Cys-S48 (ligand, human, UniProt P22301 19-178, looked up)
chain: B1 chain with K49C, C131L
modifications: S48 on Cys 49
notes: mature
B4: IL-10 Lys117Cys-R4-7 (ligand, human, UniProt P22301 19-178, looked up)
chain: B1 chain with K117C, C131L
modifications: R4-7 on Cys 117
notes: mature
B5: IL-10 Lys117Cys-S48 (ligand, human, UniProt P22301 19-178, looked up)
chain: B1 chain with K117C, C131L
modifications: S48 on Cys 117
notes: mature
B6: IL-10 Lys134Cys-R4-7 (ligand, human, UniProt P22301 19-178, looked up)
chain: B1 chain with C131L, K134C
modifications: R4-7 on Cys 134
notes: mature
B7: IL-10 Lys134Cys-S48 (ligand, human, UniProt P22301 19-178, looked up)
chain: B1 chain with C131L, K134C
modifications: S48 on Cys 134
notes: mature
B8: IL-10 Lys138Cys-R4-7 (ligand, human, UniProt P22301 19-178, looked up)
chain: B1 chain with C131L, K138C
modifications: R4-7 on Cys 138
notes: mature
B9: IL-10 Lys138Cys-S48 (ligand, human, UniProt P22301 19-178, looked up)
chain: B1 chain with C131L, K138C
modifications: S48 on Cys 138
notes: mature
B10: IL-10 Lys157Cys-R4-7 (ligand, human, UniProt P22301 19-178, looked up)
chain: B1 chain with C131L, K157C
modifications: R4-7 on Cys 157
notes: mature
B11: IL-10 Lys157Cys-S48 (ligand, human, UniProt P22301 19-178, looked up)
chain: B1 chain with C131L, K157C
modifications: S48 on Cys 157
notes: mature
B12: IL-10 Met39Cys-R4-1 (ligand, human, UniProt P22301 19-178, looked up)
chain: B1 chain with M39C, C131L
modifications: R4-1 on Cys 39
notes: mature
B13: IL-10 Met39Cys-S48 (ligand, human, UniProt P22301 19-178, looked up)
chain: B1 chain with M39C, C131L
modifications: S48 on Cys 39
notes: mature
B14: IL-10 Met140Cys-R4-1 (ligand, human, UniProt P22301 19-178, looked up)
chain: B1 chain with C131L, M140C
modifications: R4-1 on Cys 140
notes: mature
B15: IL-10 Met140Cys-S48 (ligand, human, UniProt P22301 19-178, looked up)
chain: B1 chain with C131L, M140C
modifications: S48 on Cys 140
notes: mature
B16: IL-10 Phe30Cys-R4-8 (ligand, human, UniProt P22301 19-178, looked up)
chain: B1 chain with F30C, C131L
modifications: R4-8 on Cys 30
notes: mature
B17: IL-10 Phe30Cys-S48 (ligand, human, UniProt P22301 19-178, looked up)
chain: B1 chain with F30C, C131L
modifications: S48 on Cys 30
notes: mature
B18: IL-10 Phe111Cys-R4-8 (ligand, human, UniProt P22301 19-178, looked up)
chain: B1 chain with F111C, C131L
modifications: R4-8 on Cys 111
notes: mature
B19: IL-10 Phe111Cys-S48 (ligand, human, UniProt P22301 19-178, looked up)
chain: B1 chain with F111C, C131L
modifications: S48 on Cys 111
notes: mature
B20: IL-10 Phe143Cys-R4-8 (ligand, human, UniProt P22301 19-178, looked up)
chain: B1 chain with C131L, F143C
modifications: R4-8 on Cys 143
notes: mature
B21: IL-10 Phe143Cys-S48 (ligand, human, UniProt P22301 19-178, looked up)
chain: B1 chain with C131L, F143C
modifications: S48 on Cys 143
notes: mature
B22: IL-10 Ser8Cys-R4-5 (ligand, human, UniProt P22301 19-178, looked up)
chain: B1 chain with S8C, C131L
modifications: R4-5 on Cys 8
notes: mature
B23: IL-10 Ser8Cys-S48 (ligand, human, UniProt P22301 19-178, looked up)
chain: B1 chain with S8C, C131L
modifications: S48 on Cys 8
notes: mature
B24: IL-10 Ser11Cys-R4-7 (ligand, human, UniProt P22301 19-178, looked up)
chain: B1 chain with S11C, C131L
modifications: R4-7 on Cys 11
notes: mature
B25: IL-10 Ser11Cys-S48 (ligand, human, UniProt P22301 19-178, looked up)
chain: B1 chain with S11C, C131L
modifications: S48 on Cys 11
notes: mature
B26: IL-10 Ser51Cys-R4-7 (ligand, human, UniProt P22301 19-178, looked up)
chain: B1 chain with S51C, C131L
modifications: R4-7 on Cys 51
notes: mature
B27: IL-10 Ser51Cys-S48 (ligand, human, UniProt P22301 19-178, looked up)
chain: B1 chain with S51C, C131L
modifications: S48 on Cys 51
notes: mature
B28: IL-10 Ser93Cys-R4-2 (ligand, human, UniProt P22301 19-178, looked up)
chain: B1 chain with S93C, C131L
modifications: R4-2 on Cys 93
notes: mature; the row prints S in one column and Asp in the next
B29: IL-10 Ser93Cys-S48 (ligand, human, UniProt P22301 19-178, looked up)
chain: B1 chain with S93C, C131L
modifications: S48 on Cys 93
notes: as for B28
B30: IL-10 Ser118Cys-R4-5 (ligand, human, UniProt P22301 19-178, looked up)
chain: B1 chain with S118C, C131L
modifications: R4-5 on Cys 118
notes: mature
B31: IL-10 Ser118Cys-S48 (ligand, human, UniProt P22301 19-178, looked up)
chain: B1 chain with S118C, C131L
modifications: S48 on Cys 118
notes: mature
B32: IL-10 Ser141Cys-R4-7 (ligand, human, UniProt P22301 19-178, looked up)
chain: B1 chain with C131L, S141C
modifications: R4-7 on Cys 141
notes: mature
B33: IL-10 Ser141Cys-S48 (ligand, human, UniProt P22301 19-178, looked up)
chain: B1 chain with C131L, S141C
modifications: S48 on Cys 141
notes: mature
B34: IL-10 Thr13Cys-R4-6 (ligand, human, UniProt P22301 19-178, looked up)
chain: B1 chain with T13C, C131L
modifications: R4-6 on Cys 13
notes: mature
B35: IL-10 Thr13Cys-S48 (ligand, human, UniProt P22301 19-178, looked up)
chain: B1 chain with T13C, C131L
modifications: S48 on Cys 13
notes: mature
B36: IL-10 Thr35Cys-R4-6 (ligand, human, UniProt P22301 19-178, looked up)
chain: B1 chain with T35C, C131L
modifications: R4-6 on Cys 35
notes: mature
B37: IL-10 Thr155Cys-R4-7 (ligand, human, UniProt P22301 19-178, looked up)
chain: B1 chain with C131L, T155C
modifications: R4-7 on Cys 155
notes: mature
B38: IL-10 Thr155Cys-S48 (ligand, human, UniProt P22301 19-178, looked up)
chain: B1 chain with C131L, T155C
modifications: S48 on Cys 155
notes: mature
B39: IL-10 Tyr72Cys-R4-4 (ligand, human, UniProt P22301 19-178, looked up)
chain: B1 chain with Y72C, C131L
modifications: R4-4 on Cys 72
notes: mature
B40: IL-10 Tyr72Cys-S48 (ligand, human, UniProt P22301 19-178, looked up)
chain: B1 chain with Y72C, C131L
modifications: S48 on Cys 72
notes: mature
B41: IL-10 Tyr137Cys-R4-4 (ligand, human, UniProt P22301 19-178, looked up)
chain: B1 chain with C131L, Y137C
modifications: R4-4 on Cys 137
notes: mature

The binders below were run against T1, IL-10R1-Fc (assay: ELISA, IL-10R1-Fc coated).

Binder	Decreased fold of binding to ligand after Conjugating with S48	Binding recovery (>60%)
B1	5 fold	–
B2	–	114%
B3	7 fold	–
B4	–	117%
B5	3 fold	–
B6	–	128%
B7	5 fold	–
B8	–	97.6%
B9	23 fold	–
B10	–	98.6%
B11	3 fold	–
B12	–	88%
B13	62 fold	–
B14	–	89%
B15	3 fold	–
B16	–	97.1%
B17	6 fold	–
B18	–	90.1%
B19	12 fold	–
B20	–	69%
B21	7 fold	–

Binder	Decreased fold of binding to ligand after Conjugating with S48	Binding recovery (>60%)
B22	–	100%
B23	3 fold	–
B24	–	133%
B25	9 fold	–
B26	–	96.7%
B27	3 fold	–
B28	–	100%
B29	3 fold	–
B30	–	100%
B31	3 fold	–
B32	–	112%
B33	19 fold	–
B34	–	99.1%
B35	7 fold	–
B36	–	90.1%
B37	–	98.1%
B38	3 fold	–
B39	–	109%
B40	3 fold	–
B41	–	99.1%
